{
  "source": "patent US10407662B2",
  "about": "“Method of culturing pluripotent stem cell, and polypeptide to be used therefor” (FUJIFILM Corporation, priority 2012, dated 2019)",
  "key": {"human iPS cells [1]": {"test_system": "human iPS cells", "test": "Cell Adhesiveness Evaluation 2 (synthetic peptide inhibition of cell adhesion to natural vitronectin)", "format": "cell-based", "conditions": "100 μM synthetic peptide", "protocol": "Polypeptides listed in Table 7 were synthesized by Emoc solid phase synthesis. A surface to which natural vitronectin was adsorbed at a concentration of 130 pmol/m^2, and thereafter, a cell suspension to which 100 μM of the above-described synthetic peptide was added was seeded at a rate of 30,000 cells/well. The number of adherent cells after 24 h post seeding was calculated by the same technique as in <Cell Adhesiveness Evaluation 1>."}, "[2]": {"test": "Evaluation of adsorptivity to culture plate (OPA fluorescence)", "format": "physicochemical", "conditions": "FIG. 1; for adsorptivity to a plate: 0 to 200 pmol/cm^2, 37° C. 2 hours, washed with PBS twice", "protocol": "Each polypeptide obtained by the above-described method was diluted with a predetermined buffer so as to be added to wells at a predetermined final concentration of from 0 to 200 pmol/cm^2, and the resultant was aliquoted in 64 μL to a 96-well plate made of polystyrene and treated with plasma (Tissue Culture-Treated, Falcon). Each polypeptide was adsorbed to the plate by incubation at 37° C. for 2 hours, and was thereafter washed with PBS twice, to obtain a surface coated with each of the polypeptides of from RCP-1 to RCP-16.\nTo surfaces coated with RCP-1, and from RCP-11 to RCP-16 among the polypeptide-coated surfaces obtained as described above, 64 μL of each of boric acid buffer and 1 N NaOH was applied, and incubated at 80° C. and a humidity of 100% for 24 hours. After air-cooling, 75 μL of boric acid buffer was added to each well, and 50 μL of reaction liquid in which an OPA (o-phthalaldehyde: Wako Pure Chemical Industries, Ltd.)/methanol solution (160 mg/ml) and an NAC (N-acetyl-L-cysteine: Wako Pure Chemical industries, Ltd.)/boric acid buffer solution (2 mg/ml) were mixed at 1:100 (mass ratio) was further added. After incubation at 40° C. for 30 minutes, the fluorescence intensity thereof was measured (excitation of 355 nm/fluorescence of 486 nm) using an ENVISION MULTI-LABEL COUNTER (PerkinElmer Inc.). A calibration curve was separately made from each polypeptide solution, to calculate an amount of adsorption. In FIG. 1, a black rhombus, a black tetragon, a black triangle, a black circle, a white rhombus, a white tetragon, and a white triangle represent RCP-1, RCP-11, RCP-12, RCP-13, RCP-14, RCP-15, and RCP-16, respectively."}, "human iPS cells [3]": {"test_system": "human iPS cells", "test": "Proliferation Evaluation of iPS cells on polypeptide-coated plate", "format": "cell-based", "protocol": "The iPS cells collected in the same manner as in <Cell Adhesiveness Evaluation 1>described above were seeded on a 96-well plate, to which RCP-1, RCP-11, and the natural human vitronectin were adsorbed, at a rate of 250 cells/well, and were cultured in a 5% CO2 incubator at 37° C. for 8 days. The number of adherent cells after each lapse of time was measured by the same method as in <Cell Adhesiveness Evaluation 1> described above, to obtain proliferation curves, The proliferation curves were indicated in FIG. 2. In FIG. 2, a black rhombus represents an example in which RCP-1 was used, while a black tetragon represents an example in which RCP-11 was used.\nSimilarly, each of samples from […] was prepared so as to have an addition concentration listed in Table 8 with each of from RCP-1 to RCP-10, and RCP-17, and Human Recombinant Laminin-511 as a reference, was seeded on a 96-well plate, to which each polypeptide was adsorbed, at a rate of 5000 cells/well in the same manner as in<Cell Adhesiveness Evaluation 1> described above, and was cultured in a CO2 incubator at 37° C. for 3 days. The number of cells after the 3 days was measured by the same method as in <Cell Adhesiveness Evaluation 1> described above."}, "human iPS cells [4]": {"test_system": "human iPS cells", "test": "Evaluation of Maintenance of Undifferentiation (colony form, NANOG staining)", "format": "cell-based", "conditions": "for form of iPS cell colonies: FIG. 3, TESR2, subculture every six days; for NANOG expression (immunostaining): FIG. 4; for NANOG expression (immunostaining) / maintenance of undifferentiated state: cultured for 1 month", "protocol": "iPS cells collected in the same manner as in <Cell Adhesiveness Evaluation 1> described above were suspended in TESR2. Induced pluripotent stem cells (iPS cells) were seeded on a 6-well plate (Tissue Culture-Treated, Falcon) to which each of the sample 1, the sample 2, the sample 5, the sample 6, and the sample 7 used in <Cell Adhesiveness Evaluation 1> described above was adsorbed in the same manner as in <Cell Adhesiveness Evaluation 1>, and were cultured in a CO2 incubator at 37° C. The culture medium was replaced by a fresh culture medium every day except the next day after the seeding. Subculture was performed by the same method as mentioned above every six days.\nThe cells were cultured under these conditions for 1 month, thereafter immobilized with 4% paraformaldehyde, and made to have membrane permeability enhanced with 1% Triton-X/PBS. Blocking treatment was performed with an Image IT Signal Enhancer (Invitrogen), followed by adding an anti-human NANOG antibody (AF1997, R&D Systems, Inc), ALEXA FLUOR 555-CONJUGATE rabbit anti-goat IgG antibody (Invitrogen), and DAPI (Dojindo Laboratories), by performing labeling, and by photographing the cells with a fluorescence microscope.\nIn each of FIG. 3 and FIG. 4, “A”, “B”, “C” “D”, and “E” show iPS cells cultured on RCP-1, iPS cells cultured on RCP-11, iPS cells cultured on the natural human vitronectin, iPS cells cultured on rinaminin-5, and iPS cells cultured on rLaminin-511, respectively. Scale bar: 100 μm. In FIG. 3, overall colony images are shown in the left column, while magnified images are shown in the right column; and in FIG. 4, DAPI-stained images are shown in the left column while anti-NANOG antibody-stained images are shown in the right column. Scale bars in FIGS. 3 and 4: 200 μm."}},
  "data": [
    {"molecule": "CCTDYTAECKPQVTRGDVFT [Peptide-5]", "values": [
      {"measurement": "inhibition of cell adhesion to natural vitronectin (in words)", "setting": "human iPS cells [1]", "value": "significantly inhibited"}
    ]},
    {"molecule": "CCTDYTAECKPQVTRGEVFT [Peptide-7]", "values": [
      {"measurement": "inhibition of cell adhesion to natural vitronectin (in words)", "setting": "human iPS cells [1]", "value": "adhesion inhibition did not occur"}
    ]},
    {"molecule": "DKKCQCDELCSYYQSCCTDY [Peptide-4]", "values": [
      {"measurement": "inhibition of cell adhesion to natural vitronectin (in words)", "setting": "human iPS cells [1]", "value": "significantly inhibited"}
    ]},
    {"molecule": "DQESCKGRCTEGFNVDKKCQ [Peptide-1]", "values": [
      {"measurement": "inhibition of cell adhesion to natural vitronectin (in words)", "setting": "human iPS cells [1]", "value": "adhesion inhibition did not occur"}
    ]},
    {"molecule": "EGFNVDKKCQCDELCSYYQS [Peptide-3]", "values": [
      {"measurement": "inhibition of cell adhesion to natural vitronectin (in words)", "setting": "human iPS cells [1]", "value": "adhesion inhibition did not occur"}
    ]},
    {"molecule": "KGRCTEGFNVDKKCQCDELC [Peptide-2]", "values": [
      {"measurement": "inhibition of cell adhesion to natural vitronectin (in words)", "setting": "human iPS cells [1]", "value": "adhesion inhibition did not occur"}
    ]},
    {"molecule": "RCP-14: comparative recombinant polypeptide, GPLG + human vitronectin positions 1-55 (GPLGDQESCKGRCTEGFNVDKKCQCDELCSYYQSCCTDYTAECKPQVTRGDVFTMPEDE; Synthetic Peptide RCP-14) [reference compound]", "values": [
      {"measurement": "adsorption amount relative to that of the polypeptide containing SEQ ID NO:2", "setting": "[2]", "value": "¼"},
      {"measurement": "adsorptivity to a plate", "setting": "[2]", "value": "inadequate as an adsorbent to a culture plate"}
    ]},
    {"molecule": "TAECKPQVTRGDVFTMPEDE [Peptide-6]", "values": [
      {"measurement": "inhibition of cell adhesion to natural vitronectin (in words)", "setting": "human iPS cells [1]", "value": "significantly inhibited"}
    ]},
    {"molecule": "TAECKPQVTRGEVGTMPEDE (TAECKPQVTRGEVFTMPEDE) [Peptide-8]", "values": [
      {"measurement": "inhibition of cell adhesion to natural vitronectin (in words)", "setting": "human iPS cells [1]", "value": "adhesion inhibition did not occur"}
    ]},
    {"molecule": "RCP-15: comparative recombinant polypeptide, GPLG + human vitronectin positions 56-459 (protein, Synthetic Peptide RCP-15) GPLGYTVYDDGEEKNNATVHEQVGGPSLTSDLQAQSKGNPEQTPVLKPEEEAPAPEVGASKPEGIDSRPETLHPGRPQPPAEEELCSGKPFDAFTDLKNGSLFAFRGQYCYELDEKAVRPGYPKLIRDVWGIEGPIDAAFTRINCQGKTYLFKGSQYWRFEDGVLDPDYPRNISDGFDGIPDNVDAALALPAHSYSGRERVYFFKGKQYWEYQFQHQPSQEECEGSSLSAVFEHFAMMQRDSWEDIFELLFWGRTSAGTRQPQFISRDWHGVPGQVDAAMAGRIYISGMAPRPSLAKKQRFRHRNRKGYRSQRGHSRGRNQNSRRPSRATWLSLFSSEESNLGANNYDDYRMDWLVPATCEPIQSVFFFSGDKYYRVNLRTRRVDTVDPPYPRSIAQYWLGCPAPGHL", "values": [
      {"measurement": "adsorptivity to a plate", "setting": "[2]", "value": "favorable adsorptivity to a plate, equivalent to that of RCP-11"}
    ]},
    {"molecule": "RCP-4: recombinant polypeptide, Met + human vitronectin positions 1-55, 312-341, 342-373 (protein, Synthetic Peptide RCP-4) MDQESCKGRCTEGFNVDKKCQCDELCSYYQSCCTDYTAECKPQVTRGDVFTMPEDEQPQFISRDWHGVPGQVDAAMAGRIYISGMAPRPSLAKKQRFRHRNRKGYRSQRGHSRGRNQN", "values": [
      {"measurement": "The Number (%) of Cells after 3 Days", "setting": "human iPS cells [3]; addition amount 20 μg/cm^2, 5000 cells/well", "value": 120.7, "unit": "%"}
    ]},
    {"molecule": "Natural vitronectin: human vitronectin (extracted from human plasma, BD Biosciences) (protein, listed as Homo sapiens, glycosylated, plasma-derived) DQESCKGRCTEGFNVDKKCQCDELCSYYQSCCTDYTAECKPQVTRGDVFTMPEDEYTVYDDGEEKNNATVHEQVGGPSLTSDLQAQSKGNPEQTPVLKPEEEAPAPEVGASKPEGIDSRPETLHPGRPQPPAEEELCSGKPFDAFTDLKNGSLFAFRGQYCYELDEKAVRPGYPKLIRDVWGIEGPIDAAFTRINCQGKTYLFKGSQYWRFEDGVLDPDYPRNISDGFDGIPDNVDAALALPAHSYSGRERVYFFKGKQYWEYQFQHQPSQEECEGSSLSAVFEHFAMMQRDSWEDIFELLFWGRTSAGTRQPQFISRDWHGVPGQVDAAMAGRIYISGMAPRPSLAKKQRFRHRNRKGYRSQRGHSRGRNQNSRRPSRATWLSLFSSEESNLGANNYDDYRMDWLVPATCEPIQSVFFFSGDKYYRVNLRTRRVDTVDPPYPRSIAQYWLGCPAPGHL", "values": [
      {"measurement": "form of iPS cell colonies", "setting": "human iPS cells [4]", "value": "homogeneous colony and a form characteristic for undifferentiated cells having a high nucleus occupying rate"},
      {"measurement": "NANOG expression (immunostaining)", "setting": "human iPS cells [4]", "value": "strongly expressed NANOG in an overall colony"},
      {"measurement": "maintenance of undifferentiated state", "setting": "human iPS cells [4]", "value": "undifferentiated state was favorably maintained"}
    ]},
    {"molecule": "RCP-16: comparative recombinant polypeptide, GPLG + human vitronectin positions 269-459 (protein, Synthetic Peptide RCP-16) GPLGPSQEECEGSSLSAVFEHFAMMQRDSWEDIFELLFWGRTSAGTRQPQFISRDWHGVPGQVDAAMAGRIYISGMAPRPSLAKKQRFRHRNRKGYRSQRGHSRGRNQNSRRPSRATWLSLFSSEESNLGANNYDDYRMDWLVPATCEPIQSVFFFSGDKYYRVNLRTRRVDTVDPPYPRSIAQYWLGCPAPGHL", "values": [
      {"measurement": "adsorptivity to a plate", "setting": "[2]", "value": "favorable adsorptivity to a plate, equivalent to that of RCP-11"}
    ]},
    {"molecule": "RCP-11: comparative recombinant polypeptide, GPLG + positions 1-459; corresponds to the sequence of natural human vitronectin (protein, Synthetic Peptide CRP-11) GPLGDQESCKGRCTEGFNVDKKCQCDELCSYYQSCCTDYTAECKPQVTRGDVFTMPEDEYTVYDDGEEKNNATVHEQVGGPSLTSDLQAQSKGNPEQTPVLKPEEEAPAPEVGASKPEGIDSRPETLHPGRPQPPAEEELCSGKPFDAFTDLKNGSLFAFRGQYCYELDEKAVRPGYPKLIRDVWGIEGPIDAAFTRINCQGKTYLFKGSQYWRFEDGVLDPDYPRNISDGFDGIPDNVDAALALPAHSYSGRERVYFFKGKQYWEYQFQHQPSQEECEGSSLSAVFEHFAMMQRDSWEDIFELLFWGRTSAGTRQPQFISRDWHGVPGQVDAAMAGRIYISGMAPRPSLAKKQRFRHRNRKGYRSQRGHSRGRNQNSRRPSRATWLSLFSSEESNLGANNYDDYRMDWLVPATCEPIQSVFFFSGDKYYRVNLRTRRVDTVDPPYPRSIAQYWLGCPAPGHL", "values": [
      {"measurement": "number of cells smaller than that of RCP-1, as fraction of RCP-1", "setting": "human iPS cells [3]; culture day 8, FIG. 2", "value": "around ⅓"},
      {"measurement": "form of iPS cell colonies", "setting": "human iPS cells [4]", "value": "homogeneous colony and a form characteristic for undifferentiated cells having a high nucleus occupying rate"},
      {"measurement": "NANOG expression (immunostaining)", "setting": "human iPS cells [4]", "value": "strongly expressed NANOG in an overall colony"},
      {"measurement": "maintenance of undifferentiated state", "setting": "human iPS cells [4]", "value": "undifferentiated state was favorably maintained"}
    ]}
  ]
}
